Results on six molecules are retold here after patent publication US20230295310A1 (ABCELLERA BIOLOGICS, published 2023).

Substitutions are numbered along the chain they refer to.

For this assay, the target named is EGFR on HeLa cells (UniProt P00533 25-1210, limits assumed). The assay can be described thus: cell-based or functional assay.

B1: GOMP001_bsAb_044 (bispecific antibody, human IgG1, kappa, L234A L235A)
heavy 1: EVQLVESGGGLVKTGGSLRLSCVASGFSFKKAWMNWVRKAPGKGLEWVGRIKRNTDGGTADYAAEVKGRFTLSRDDSKKTLFLQMNSLKTEDTAVYYCTTLDSSSYYVGYYYMDVWGKGTTVTVSSASTKGPSVFPLAPSSKSTSGGTAALGCLVADYFPEPVTVSWNSGALTSGVHTFPAVLQSSGLYSLSSVVTVPSSSLGTQTYICNVNHKPSNTKVDEKVEPKSCDKTHTCPPCPAPEAAGGPSVFLFPPKPKDTLMISRTPEVTCVVVDVSHEDPEVKFNWYVDGVEVHNAKTKPREEQYNSTYRVVSVLTVLHQDWLNGKEYKCKVSNKALPAPIEKTISKAKGQPREPQVYTLPPSREEMTDNQVSLTCLVKGFYPSDIAVEWESNGQPENNYKTTPPVLMSDGSFFLASKLTVDKSRWQQGNVFSCSVMHEALHNHYTQKSLSLSPG
light 1: RIQMTQSPSSVSASVGDRVTITCRASQDINNWLAWYQDKPGKAPKLLIYTASSLQSGVPSRFSGSGSGTDFTLTIGSLQPEDFATYYCQQAHSLPITFGQGTRLEIKRTVAAPSVFIFPPSDKQLKSGTARVVCLLNNFYPREAKVQWKVDNALQSGNSQESVTEQDSKDSTYSLSSTLTLSKADYEKHKVYACEVTHQGLSSPVTKSFNRGEC
heavy 2: QVQLVQSGAEVKKPGASVKVSCKASGYTFTSHWMHWVRYAPGQGLEWIGEFNPSNGRTNYNEKFKSKATMTVDTSTNTAYMELSSLRSEDTAVYYCASRDYDYDGRYFDYWGRGTLVTVSSASTKGPSVFPLAPSSKSTSGGTAALGCLVKDYFPEPVTVSWNSGALTSGVHTFPAVLQSSGLYSLSSVVTVPSSSLGTQTYICNVNHKPSNTKVDKKVEPKSCDKTHTCPPCPAPEAAGGPSVFLFPPKPKDTLMISRTPEVTCVVVDVSHEDPEVKFNWYVDGVEVHNAKTKPREEQYNSTYRVVSVLTVLHQDWLNGKEYKCKVSNKALPAPIEKTISKAKGQPRRPRVYTLPPSREEMTKNQVSLVCLVKGFYPSDIAVEWESNGQPENNYKTTPPVLDSDGSFFLYSVLTVDKSRWQQGNVFSCSVMHEALHNHYTQKSLSLSPG
light 2: DIQMTQSPSSLSASVGDRVTITCSASSSVTYMYWYQRKPGDAPKLLIYDTSNLASGVPSRFSGSGSGTDYTFTISSLQPEDIATYYCQQWSSHIFTFGQGTKVEIKRTVAAPSVFIFPPSDEQLKSGTASVVCLLNNFYPREAKVQWKVDNALQSGNSQESVTEQDSKDSTYSLSSTLTLSKADYEKHKVYACEVTHQGLSSPVTKSFNRGEC
Consider B1, for which the Max killing % is 84.1% and the “X… HeLa EC50” value is 0.0201 nM.

B2: GOMP001_bsAb_051 (bispecific antibody, human IgG1, kappa, L234A L235A)
heavy 1: QVQLVQSGAEVKKPGASVKVSCKASGYTFTSHWMHWVRKAPGQGLEWIGEFNPSNGRTNYNEEFKSKATMTVDTSTNTAYMELSSLRSEDTAVYYCASRDYDYDGRYFDYWGQGTLVTVSSASTKGPSVFPLAPSSKSTSGGTAALGCLVADYFPEPVTVSWNSGALTSGVHTFPAVLQSSGLYSLSSVVTVPSSSLGTQTYICNVNHKPSNTKVDEKVEPKSCDKTHTCPPCPAPEAAGGPSVFLFPPKPKDTLMISRTPEVTCVVVDVSHEDPEVKFNWYVDGVEVHNAKTKPREEQYNSTYRVVSVLTVLHQDWLNGKEYKCKVSNKALPAPIEKTISKAKGQPREPQVYTLPPSREEMTDNQVSLTCLVKGFYPSDIAVEWESNGQPENNYKTTPPVLMSDGSFFLASKLTVDKSRWQQGNVFSCSVMHEALHNHYTQKSLSLSPG
light 1: B1 light 2 with D1R, R37D, D41K, E122K, S130R
heavy 2: QVQLVQSGAEVKKPGASVKVSCKASGYTFTSYYIHWVRYAPGQGLDWMGIINPSGGITGYAQKLQGRVTMTRDTSTTTVYMELSSLRSDDTAVYYCARGVRGNYYYYYMDVWGRGTTVTVSSASTKGPSVFPLAPSSKSTSGGTAALGCLVKDYFPEPVTVSWNSGALTSGVHTFPAVLQSSGLYSLSSVVTVPSSSLGTQTYICNVNHKPSNTKVDKKVEPKSCDKTHTCPPCPAPEAAGGPSVFLFPPKPKDTLMISRTPEVTCVVVDVSHEDPEVKFNWYVDGVEVHNAKTKPREEQYNSTYRVVSVLTVLHQDWLNGKEYKCKVSNKALPAPIEKTISKAKGQPRRPRVYTLPPSREEMTKNQVSLVCLVKGFYPSDIAVEWESNGQPENNYKTTPPVLDSDGSFFLYSVLTVDKSRWQQGNVFSCSVMHEALHNHYTQKSLSLSPG
light 2: EIVLTQSPDFQSVTPKEKVTITCRASQSIGSKLHWYQRKPDDSPKLLIKYASQSFSGVPSRFSGSGSGTDFNLTINSLEAEDAATFYCHQSSGLPYTFGQGTKLEIKRTVAAPSVFIFPPSDEQLKSGTASVVCLLNNFYPREAKVQWKVDNALQSGNSQESVTEQDSKDSTYSLSSTLTLSKADYEKHKVYACEVTHQGLSSPVTKSFNRGEC
B2: the Max killing % is 60.2%.

B3: GOMP001_bsAb_045 (bispecific antibody, human IgG1, kappa, L234A L235A)
heavy 1: B2 heavy 1
light 1: B1 light 2 with D1R, R37D, D41K, E122K, S130R
heavy 2: EVQLVESGGGLVQPGRSLRLSCATSGFTFADYTMHWVRYAPGKGLEWVSGISWNSGSIDYADRVKGRFTISRDNAKKSLYLQMNSLRAEDTALYFCAKDSSGYGHYYFYYLDVWGRGTTVTVSSASTKGPSVFPLAPSSKSTSGGTAALGCLVKDYFPEPVTVSWNSGALTSGVHTFPAVLQSSGLYSLSSVVTVPSSSLGTQTYICNVNHKPSNTKVDKKVEPKSCDKTHTCPPCPAPEAAGGPSVFLFPPKPKDTLMISRTPEVTCVVVDVSHEDPEVKFNWYVDGVEVHNAKTKPREEQYNSTYRVVSVLTVLHQDWLNGKEYKCKVSNKALPAPIEKTISKAKGQPRRPRVYTLPPSREEMTKNQVSLVCLVKGFYPSDIAVEWESNGQPENNYKTTPPVLDSDGSFFLYSVLTVDKSRWQQGNVFSCSVMHEALHNHYTQKSLSLSPG
light 2: not shown
With B3, the Max killing % stood at 69.5% and the “X… HeLa EC50” value came out at 0.179 nM.

B4: GOMP001_bsAb_050 (bispecific antibody, human IgG1, kappa, L234A L235A)
heavy 1: QVQLVESGGGVVQPGRSLRLSCAASGFTFSTYGMHWVRKAPGKGLEWVAVIWYDGSHKYYADEVKGRFTISRDNSKKTLYLQMNSLRAEDTGIYYCARTGISGNMSYFYFDHWGQGILVTVSSASTKGPSVFPLAPSSKSTSGGTAALGCLVADYFPEPVTVSWNSGALTSGVHTFPAVLQSSGLYSLSSVVTVPSSSLGTQTYICNVNHKPSNTKVDEKVEPKSCDKTHTCPPCPAPEAAGGPSVFLFPPKPKDTLMISRTPEVTCVVVDVSHEDPEVKFNWYVDGVEVHNAKTKPREEQYNSTYRVVSVLTVLHQDWLNGKEYKCKVSNKALPAPIEKTISKAKGQPREPQVYTLPPSREEMTDNQVSLTCLVKGFYPSDIAVEWESNGQPENNYKTTPPVLMSDGSFFLASKLTVDKSRWQQGNVFSCSVMHEALHNHYTQKSLSLSPG
light 1: not shown
heavy 2: B1 heavy 2
light 2: B1 light 2
In turn, B4 registered a Max killing % of 57%.

B5: GOMP001_bsAb_046 (bispecific antibody, human IgG1, kappa, L234A L235A)
heavy 1: EVQLVESGGGLVQPGRSLRLSCATSGFTFADYTMHWVRKAPGKGLEWVSGISWNSGSIDYADEVKGRFTISRDNAKKSLYLQMNSLRAEDTALYFCAKDSSGYGHYYFYYLDVWGKGTTVTVSSASTKGPSVFPLAPSSKSTSGGTAALGCLVADYFPEPVTVSWNSGALTSGVHTFPAVLQSSGLYSLSSVVTVPSSSLGTQTYICNVNHKPSNTKVDEKVEPKSCDKTHTCPPCPAPEAAGGPSVFLFPPKPKDTLMISRTPEVTCVVVDVSHEDPEVKFNWYVDGVEVHNAKTKPREEQYNSTYRVVSVLTVLHQDWLNGKEYKCKVSNKALPAPIEKTISKAKGQPREPQVYTLPPSREEMTDNQVSLTCLVKGFYPSDIAVEWESNGQPENNYKTTPPVLMSDGSFFLASKLTVDKSRWQQGNVFSCSVMHEALHNHYTQKSLSLSPG
light 1: not shown
heavy 2: B1 heavy 2
light 2: B1 light 2
On to B5, for which the Max killing % stood at 92.6% and the “X… HeLa EC50” value was found to be 0.0264 nM.

B6: GOMP001_bsAb_049 (bispecific antibody, human IgG1, kappa, L234A L235A)
heavy 1: B2 heavy 1
light 1: B1 light 2 with D1R, R37D, D41K, E122K, S130R
heavy 2: QVQLVESGGGVVQPGRSLRLSCAASGFTFSTYGMHWVRYAPGKGLEWVAVIWYDGSHKYYADRVKGRFTISRDNSKKTLYLQMNSLRAEDTGIYYCARTGISGNMSYFYFDHWGRGILVTVSSASTKGPSVFPLAPSSKSTSGGTAALGCLVKDYFPEPVTVSWNSGALTSGVHTFPAVLQSSGLYSLSSVVTVPSSSLGTQTYICNVNHKPSNTKVDKKVEPKSCDKTHTCPPCPAPEAAGGPSVFLFPPKPKDTLMISRTPEVTCVVVDVSHEDPEVKFNWYVDGVEVHNAKTKPREEQYNSTYRVVSVLTVLHQDWLNGKEYKCKVSNKALPAPIEKTISKAKGQPRRPRVYTLPPSREEMTKNQVSLVCLVKGFYPSDIAVEWESNGQPENNYKTTPPVLDSDGSFFLYSVLTVDKSRWQQGNVFSCSVMHEALHNHYTQKSLSLSPG
light 2: not shown
B6 gave a Max killing % of 55.9%.
